The values that follow come from patent US20240294650A1 (Alector, published 2024).

What is called Kd is the equilibrium constant for the complex coming apart.

The target of assay [1] is T1, recombinant cynomolgus MerTK extracellular domain (cynomolgus, UniProt Q12866 21-505 (human entry)).
T1 construct: also called cyno MerTK ECD; not shown: polyHis or TEVS/Thrombin/murine IgG2a-Fc tag
T1 chain: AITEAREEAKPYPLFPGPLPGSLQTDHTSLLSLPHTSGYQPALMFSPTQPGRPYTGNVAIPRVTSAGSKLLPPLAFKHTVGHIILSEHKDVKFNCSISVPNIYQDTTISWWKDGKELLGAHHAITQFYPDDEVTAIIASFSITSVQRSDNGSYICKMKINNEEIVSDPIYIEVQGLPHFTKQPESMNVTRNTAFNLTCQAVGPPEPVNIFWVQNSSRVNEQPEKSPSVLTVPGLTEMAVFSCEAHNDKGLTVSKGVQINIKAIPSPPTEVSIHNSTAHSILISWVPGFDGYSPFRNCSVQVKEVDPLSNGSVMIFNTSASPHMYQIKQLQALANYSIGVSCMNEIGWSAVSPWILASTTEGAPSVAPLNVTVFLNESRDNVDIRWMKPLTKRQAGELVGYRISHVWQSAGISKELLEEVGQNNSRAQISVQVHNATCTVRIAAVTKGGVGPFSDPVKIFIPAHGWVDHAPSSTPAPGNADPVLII
As to the kind of experiment: SPR Carterra LSA. The procedure:
Binding kinetics of anti-MerTK IgG1 antibodies of the present disclosure to human, cyno, and murine MerTK were evaluated using a Carterra LSA instrument (Carterra, Salt Lake City, UT). […] A HC200M sensor chip (Carterra) was activated using the single channel flow cell with a 7-minute injection of a 1:1:1 mixture of 100 mM MES pH 5.5, 100 mM sulfo-NHS, 400 mM EDC (all reconstituted in MES pH 5.5; 100 μl of each mixed in vial immediately before running assay). After switching to the multi-channel array flow cell, the antibodies were injected over the activated chip in three 96-spot arrays for 10 minutes each. The remaining unconjugated active groups on the chip were then blocked by injecting 1M Ethanolamine pH 8.5 (Carterra) for 7 minutes using the single channel flow cell. The resulting sensor chip contained three spots for each antibody, at three different densities. Two independent experiments were performed as follows, resulting in an N of between one and six determinations for each antibody. Spots that yielded less than 25 RU of analyte binding were excluded from further analysis.
After priming with running buffer (HBS-TE, Carterra) with 0.5 mg/ml BSA (Sigma), the immobilized anti-MerTK antibodies were tested for their ability to bind to several forms of recombinant MerTK extracellular domain, including human, cynomolgus, and mouse orthologs as described above. Estimates of affinity were generated by injecting each analyte over the entire antibody array using the single channel flow cell. MerTK analytes were diluted with running buffer, in a series of six, three-fold serial dilutions starting from 1 μM for human and cynomolgus MerTK, and 600 nM for mouse MerTK. Analytes were injected for 5 minutes, and dissociation was followed for 10 minutes. After each analyte injection, antibodies were regenerated with either Protein A/G Elution Buffer (Thermo) with 1M NaCl (Teknova), or with 10 mM Glycine pH 2.5. Three buffer blanks were run between each series (one species per series). Data were processed and analyzed using NextGenKIT high-throughput kinetics analysis software (Carterra).

The target in assay [2] is T2, recombinant human MerTK extracellular domain (human, UniProt Q12866 21-505).
T2 construct: also called human MerTK ECD; not shown: polyHis or TEVS/Thrombin/murine IgG2a-Fc tag
T2 sequence: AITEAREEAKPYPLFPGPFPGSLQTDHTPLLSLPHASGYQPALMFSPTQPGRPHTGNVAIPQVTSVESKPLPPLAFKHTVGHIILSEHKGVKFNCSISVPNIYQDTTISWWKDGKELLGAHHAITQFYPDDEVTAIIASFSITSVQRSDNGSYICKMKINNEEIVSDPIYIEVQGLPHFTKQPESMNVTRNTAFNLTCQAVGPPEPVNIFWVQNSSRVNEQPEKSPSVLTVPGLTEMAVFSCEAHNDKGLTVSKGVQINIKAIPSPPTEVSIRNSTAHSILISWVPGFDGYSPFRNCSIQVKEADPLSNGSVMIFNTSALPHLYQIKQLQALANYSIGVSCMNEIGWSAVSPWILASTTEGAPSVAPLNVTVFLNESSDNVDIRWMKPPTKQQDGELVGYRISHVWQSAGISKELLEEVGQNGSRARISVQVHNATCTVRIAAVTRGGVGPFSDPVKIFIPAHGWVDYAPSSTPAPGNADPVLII
Description: SPR Carterra LSA, Ab immobilised. In outline: (§1)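 Surface plasmon resonance on a Carterra LSA measured affinity of immobilized antibodies for human, cynomolgus or mouse MerTK ectodomain diluted in HBS-TE with 0.5 mg/ml BSA. Analytes flowed over the full array, surfaces were regenerated with Protein A/G Elution Buffer plus 1M NaCl or 10 mM Glycine pH 2.5, and spots binding under 25 RU were discarded before kinetic fitting.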

Assay [3] concerns the target T1, recombinant cynomolgus MerTK …. Description: SPR Carterra LSA, Ab immobilised. In a few lines:
as §1

The target of assay [4] is T3, recombinant murine MerTK extracellular domain (mouse, UniProt Q60805 19-497).
T3 construct: also called Mouse MerTK; murine MerTK ECD; not shown: polyHis or TEVS/Thrombin/murine IgG2a-Fc tag
T3 sequence: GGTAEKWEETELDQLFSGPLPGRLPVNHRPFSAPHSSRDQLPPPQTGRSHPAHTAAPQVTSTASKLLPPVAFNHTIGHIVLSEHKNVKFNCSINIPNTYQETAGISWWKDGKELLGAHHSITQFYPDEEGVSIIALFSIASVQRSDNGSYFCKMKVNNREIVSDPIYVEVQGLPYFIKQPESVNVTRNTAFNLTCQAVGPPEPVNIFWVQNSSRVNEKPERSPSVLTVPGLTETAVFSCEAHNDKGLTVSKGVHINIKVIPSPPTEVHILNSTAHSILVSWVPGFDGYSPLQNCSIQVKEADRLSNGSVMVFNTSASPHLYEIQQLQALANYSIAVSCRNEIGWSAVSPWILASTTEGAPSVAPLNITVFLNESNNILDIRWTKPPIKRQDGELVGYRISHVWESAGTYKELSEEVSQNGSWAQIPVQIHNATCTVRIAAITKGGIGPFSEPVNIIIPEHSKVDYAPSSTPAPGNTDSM
As to the kind of experiment: SPR Carterra LSA, Ab immobilised. In outline:
as §1

B1: MTK-212 (antibody, human IgG1, V domains shown)
VH: QVQLQQSGPELVKPGASVKISCKASGYAFSSSWVNWVKQRPGKGLEWIGRIYPGDGDSNYNGNFKGKATLTADKSSNTAYLQLSSLTSEDSAVYFCARKSHFIYYTLDYWGQGTPVTVSS
VL: DIVMTQSHKFKSTSVGDRVSIACKASQDVGTSVAWYQQKPGKSPKLLIYWASSRHTGVPDRFTGSGSGTDFTLTISNVQSEDLTDYFCQQYSTYPYTFGGGTKLEIK
Consider B1, for which the “Ratio of KD for Cynomolgus vs Human MerTK” value (from here on “Ratio of KD for Cynomolgus”) in assay [1] is 18.3 ratio. The dissociation constant (Kd) came to 82 nM in assay [2], 1500 nM in assay [3] and 11 nM in assay [4].

B2: MTK-221 (antibody, human IgG1, V domains shown)
VH: QVTLKESGPGMLQSSQTLSLTCSFSGFSLSTSGMGVSWIRQPSGKGLEWLAHIYWDDDKRYNTSLQSRLTISKDTSRNQVFLKITSVDTADTATYFCGRLGAYSAFPYYFDYWGQGTTLTVSS
VL: DIQMTQSPSSLSASLGGKVTITCKASQDIHKHIAWYQHKPGKGPRLLIHYTSTLQPGIPSRFSGSGSGRDYSFSISNLEPEDLATYYCLQYDNLWTFGGGTKLEIK
For B2, the “Ratio of KD for Cynomolgus” value in assay [1] stood at 1.3 ratio. In addition, the dissociation constant (Kd) in assay [2] was found to be 29 nM; in assay [3], 38 nM. Also, the binding result in assay [4] is on record as “no binding (tested: analyte up to 600 nM)”.

B3: MTK-206 (antibody, human IgG1, V domains shown)
VH: QVQLQQSGAELARPGASVKMSCKASGYTFTSYTMHWVKQRPGQGLEWIGYINPSSGYIKNSQKFKDKATLTADKSSSTAYMQLSSLTSEDSAVYYCARTVYGYYGSSPDYWGQGTTLTVSS
VL: DIQMTQSPSSLSASLGERVSLTCRASQDIGSNLNWLQQEPDGTIKRLIYATSSLESGVPKRFSGSRSGSDYSLTISSLESEDFVDYYCLQYDSSPWTFGGGTKLEIK
Turning to B3, the “Ratio of KD for Cynomolgus” value in assay [1] is 24.7 ratio. In addition, the figures for the Kd in assay [2] and in assay [3] were 150 nM and 3700 nM, respectively. Moreover, the binding result in assay [4] is reported as “no binding (tested: analyte up to 600 nM)”.

B4: MTK-208 (antibody, human IgG1, V domains shown)
VH: QVQLQQPGAELVVPGASVRLSCKASGYTFINYWMHWVKQRPGQGLEWIGEIDPSDSYANYNQKFKDKSTLSLDKSSSTAYMQLSSLTSEDSAVYYCARCDYYGRLDYWGQGTTLTVSS
VL: QVVLTQSPAIMSASPGEKVTITCSASSSVSYMLWFQQKPGTSPKLWIYSTSNLASGVPARFSGSGSGTSYSLTISRLEAEDAATYYCQQRSSYPPITFGAGTKLELK
With B4, the “Ratio of KD for Cynomolgus” value in assay [1] was determined as 1.8 ratio. Moreover, the figures for the Kd in assay [2] and in assay [3] were 19 nM and 34 nM, respectively. For the same molecule, the binding result in assay [4] was “no binding (tested: analyte up to 600 nM)”.
